How the values were obtained:
Experiment in all cases: Crosslinking/co-immunoprecipitation/mass spectrometry (TMT quantitative proteomics) to identify irisin receptors
Format in all cases: binding
[1] = molecular target: T1, MLO-Y4 cell surface proteins (Mus musculus, UniProt Q9JHS4); settings: co-precipitated protein Clpx (CLPX_MOUSE)
T1 construct: endogenous in cells; host or cells: MLO-Y4
In short: (§1)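 Mouse MLO-Y4 cells were switched to serum-free FreeStyle medium for 4 h, chilled, then exposed to 10 nM His-tagged irisin (or adipsin as control) for 20 min. Cells were crosslinked with 1.5 mM DTSSP (30 min, ice), and bound proteins were pulled down on Ni-NTA and eluted with 250 mM imidazole. Eluates were separated by SDS-PAGE, trypsin-digested in gel, TMT 6-plex labelled and quantified by MS3-based LC-MS/MS on an Orbitrap Fusion Lumos.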

[2] = molecular target: T2, MLO-Y4 cell surface proteins (Mus musculus, UniProt P39654); settings: co-precipitated protein Alox15 (LOX15_MOUSE)
T2 construct: endogenous in cells; host or cells: MLO-Y4
T2 sequence (P39654 1-663): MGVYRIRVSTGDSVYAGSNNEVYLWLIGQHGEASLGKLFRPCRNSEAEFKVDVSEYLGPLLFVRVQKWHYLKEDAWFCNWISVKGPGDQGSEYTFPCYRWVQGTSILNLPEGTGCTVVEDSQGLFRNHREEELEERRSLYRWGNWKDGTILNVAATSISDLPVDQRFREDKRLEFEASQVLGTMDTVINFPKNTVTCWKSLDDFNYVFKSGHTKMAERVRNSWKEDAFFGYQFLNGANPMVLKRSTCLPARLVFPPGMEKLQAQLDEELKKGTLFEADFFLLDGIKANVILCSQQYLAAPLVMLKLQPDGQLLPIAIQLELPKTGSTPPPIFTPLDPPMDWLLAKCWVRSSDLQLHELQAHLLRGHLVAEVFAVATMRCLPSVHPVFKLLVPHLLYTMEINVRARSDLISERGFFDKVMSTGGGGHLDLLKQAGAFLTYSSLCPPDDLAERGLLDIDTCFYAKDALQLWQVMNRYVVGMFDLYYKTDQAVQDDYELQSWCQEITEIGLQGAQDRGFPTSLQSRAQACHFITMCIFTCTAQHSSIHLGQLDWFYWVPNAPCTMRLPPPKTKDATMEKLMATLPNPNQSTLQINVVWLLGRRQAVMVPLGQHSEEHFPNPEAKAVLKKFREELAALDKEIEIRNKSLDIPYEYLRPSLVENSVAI
In short: as §1

[3] = molecular target: T3, MLO-Y4 cell surface proteins (Mus musculus, UniProt Q8VHN7); settings: co-precipitated protein Gpr98 (GPR98_MOUSE)
T3 construct: endogenous in cells; host or cells: MLO-Y4
In short: as §1

[4] = molecular target: T4, MLO-Y4 cell surface proteins (Mus musculus, UniProt Q9Z138); settings: co-precipitated protein Ror2 (ROR2_MOUSE)
T4 construct: endogenous in cells; host or cells: MLO-Y4
In short: as §1

[5] = molecular target: T5, MLO-Y4 cell surface proteins (Mus musculus, UniProt Q99KR7); settings: co-precipitated protein Ppif (PPIF_MOUSE)
T5 construct: endogenous in cells; host or cells: MLO-Y4
In short: as §1

[6] = molecular target: T6, MLO-Y4 cell surface proteins (Mus musculus, UniProt Q8R1J9); settings: co-precipitated protein Tor2a (TOR2A_MOUSE)
T6 construct: endogenous in cells; host or cells: MLO-Y4
In short: as §1

T5 sequence (Q99KR7 30-206): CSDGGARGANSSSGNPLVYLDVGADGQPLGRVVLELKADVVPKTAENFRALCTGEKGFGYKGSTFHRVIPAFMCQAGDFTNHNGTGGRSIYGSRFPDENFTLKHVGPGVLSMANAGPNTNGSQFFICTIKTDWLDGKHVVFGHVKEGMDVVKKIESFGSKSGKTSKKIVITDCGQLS
T6 sequence (Q8R1J9 27-321): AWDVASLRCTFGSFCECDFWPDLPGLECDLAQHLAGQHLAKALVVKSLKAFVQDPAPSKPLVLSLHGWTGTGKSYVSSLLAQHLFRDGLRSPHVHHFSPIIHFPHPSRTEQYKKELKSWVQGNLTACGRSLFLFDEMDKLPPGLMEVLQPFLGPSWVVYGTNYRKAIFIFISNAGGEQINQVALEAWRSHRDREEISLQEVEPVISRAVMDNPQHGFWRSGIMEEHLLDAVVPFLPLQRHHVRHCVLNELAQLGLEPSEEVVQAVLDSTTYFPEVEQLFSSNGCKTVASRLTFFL
T4 sequence (Q9Z138 34-944): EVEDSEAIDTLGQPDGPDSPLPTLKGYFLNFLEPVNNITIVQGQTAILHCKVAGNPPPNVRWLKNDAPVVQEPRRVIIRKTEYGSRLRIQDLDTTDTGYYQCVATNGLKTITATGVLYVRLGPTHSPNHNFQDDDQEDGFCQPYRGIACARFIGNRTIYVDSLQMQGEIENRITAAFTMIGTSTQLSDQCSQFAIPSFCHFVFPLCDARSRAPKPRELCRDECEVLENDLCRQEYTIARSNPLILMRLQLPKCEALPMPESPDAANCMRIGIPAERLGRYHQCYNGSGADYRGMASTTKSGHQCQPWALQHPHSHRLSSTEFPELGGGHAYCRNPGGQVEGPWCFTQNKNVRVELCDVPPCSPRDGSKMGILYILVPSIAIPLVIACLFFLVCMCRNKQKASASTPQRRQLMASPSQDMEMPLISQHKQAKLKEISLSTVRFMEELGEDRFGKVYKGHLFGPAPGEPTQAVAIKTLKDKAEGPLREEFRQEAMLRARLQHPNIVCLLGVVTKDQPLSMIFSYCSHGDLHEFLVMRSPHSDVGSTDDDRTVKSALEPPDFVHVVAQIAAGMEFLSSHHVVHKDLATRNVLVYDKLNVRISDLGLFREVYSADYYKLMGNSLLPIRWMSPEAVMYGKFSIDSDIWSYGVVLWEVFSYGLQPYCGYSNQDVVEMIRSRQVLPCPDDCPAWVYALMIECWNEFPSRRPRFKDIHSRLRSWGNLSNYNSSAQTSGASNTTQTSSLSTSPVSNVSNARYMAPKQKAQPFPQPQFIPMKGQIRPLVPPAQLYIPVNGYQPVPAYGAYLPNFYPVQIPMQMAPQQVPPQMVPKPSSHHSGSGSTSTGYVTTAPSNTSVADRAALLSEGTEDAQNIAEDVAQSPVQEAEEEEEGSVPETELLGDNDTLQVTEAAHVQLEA
T1 sequence (Q9JHS4 57-634): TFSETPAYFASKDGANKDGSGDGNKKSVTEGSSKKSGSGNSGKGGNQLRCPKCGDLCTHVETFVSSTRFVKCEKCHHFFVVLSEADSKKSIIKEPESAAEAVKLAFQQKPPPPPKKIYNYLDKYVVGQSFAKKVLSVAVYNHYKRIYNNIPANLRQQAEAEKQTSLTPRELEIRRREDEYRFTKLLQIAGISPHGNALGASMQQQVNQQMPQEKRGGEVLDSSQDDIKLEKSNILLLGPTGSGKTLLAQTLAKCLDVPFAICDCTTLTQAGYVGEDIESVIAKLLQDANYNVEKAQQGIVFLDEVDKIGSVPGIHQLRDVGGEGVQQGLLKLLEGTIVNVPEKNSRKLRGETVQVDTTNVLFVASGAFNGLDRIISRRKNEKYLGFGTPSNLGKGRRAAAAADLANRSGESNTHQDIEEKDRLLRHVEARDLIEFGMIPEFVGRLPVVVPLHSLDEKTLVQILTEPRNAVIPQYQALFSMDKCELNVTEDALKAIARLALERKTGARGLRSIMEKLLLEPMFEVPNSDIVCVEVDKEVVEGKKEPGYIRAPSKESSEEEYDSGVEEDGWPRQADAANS

B1: irisin: secreted cleaved form of FNDC5; recombinant human/mouse irisin with C-terminal his tag produced in HEK293 cells (protein)
chain: DSPSAPVNVTVRHLKANSAVVSWDVLEDEVVIGFAISQQKKDVRMLRFIQEVNTTTRSCALWDLEEDTEYIVHVQAISIQGQSPASEPVLFKTPREAEKMASKNKDEVTMKE
modifications: left off: small tags and cut ends
notes: secreted cleaved form of FNDC5; recombinant human/mouse irisin with C-terminal his tag produced in HEK293 cells
TMT signal-to-noise ratio [1]: 851.066
irisin/adipsin TMT signal-to-noise ratio [1]: 0.561
TMT signal-to-noise ratio [2]: 9.028
irisin/adipsin TMT signal-to-noise ratio [2]: 0.064
TMT signal-to-noise ratio [3]: 249.388
irisin/adipsin TMT signal-to-noise ratio [3]: 0.403
TMT signal-to-noise ratio [4]: 39.5932
irisin/adipsin TMT signal-to-noise ratio [4]: 0.585
TMT signal-to-noise ratio [5]: 49.7858
irisin/adipsin TMT signal-to-noise ratio [5]: 0.199
TMT signal-to-noise ratio [6]: 338.383
irisin/adipsin TMT signal-to-noise ratio [6]: 0.486

Reference: patent US20210063414A1, “METHODS FOR PREVENTING AND/OR TREATING BONE LOSS CONDITIONS BY MODULATING IRISIN” (Dana-Farber Cancer Institute, Inc., priority 2018, published 2021)
